Target: T1, rCCN2 (cellular communication network factor 2) (UniProt P29279)
T1 sequence: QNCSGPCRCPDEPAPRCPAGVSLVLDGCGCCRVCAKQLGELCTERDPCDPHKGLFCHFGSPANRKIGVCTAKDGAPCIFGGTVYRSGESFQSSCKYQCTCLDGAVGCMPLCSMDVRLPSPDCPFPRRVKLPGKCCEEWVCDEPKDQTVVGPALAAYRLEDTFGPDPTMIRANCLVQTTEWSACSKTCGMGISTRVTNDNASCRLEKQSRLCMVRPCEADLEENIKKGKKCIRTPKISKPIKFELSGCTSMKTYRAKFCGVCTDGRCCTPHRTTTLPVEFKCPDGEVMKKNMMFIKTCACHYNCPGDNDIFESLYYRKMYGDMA
Test: EMSA
Details: 20 mM HEPES (pH not stated), 45 mM KCl, 10 mM NaCl, 1 mM DTT, 0.1% NP-40, 10% glycerol, 4 C overnight; 4% polyacrylamide gel in TBE

Sequence: GCACACATGCTTCCTGTGGTGACTGGGCGCTTCCTGTTTTCTCAGGCACCGGCCTTGCTGCTGCCGATGTGGAAACAGGGGCAGCTGCAGCCAGGGCGGCTCCAGGCTGGGCACTCTGACCCTGCCCAGAAGGGAGTGAGGGGGCCCACCACCCTTAGACTTACGATCTAGACAGTGGGT (double strand) [Spi1 proximal promoter probe (178 bp)]
- binding: binds

Source: PMC12463490
